{"source": "patent US20080318834A1", "about": "“Antimicrobial Lactoferrin Compositions for Surfaces, Cavities, and Foodstuff” (priority 2004, published 2008)", "key": {"[1]": {"tested_on": "Ps. aeruginosa (Pak strain)", "assay": "in vitro growth inhibition assay in Luria Broth Base (LB) (Bioscreen C, OD 420-580 nm)", "format": "cell-based, Pseudomonas aeruginosa", "settings": "2% (w/v) LF in PBS, sample pH of 1.7 or lower; 200 CFU's/well (200 CFU's:1 mg LF); FIG. 1B"}, "[2]": {"tested_on": "E. coli ATCC 43895 (E. coli O157:H7)", "assay": "in vitro Tryptic Soy Broth (TSB) growth inhibition assay (Bioscreen C, OD 420-580 nm)", "format": "cell-based, Escherichia coli"}}, "data": [{"molecule": "lactoferrin (protein, UniProt P02788 20-710, looked up) Lactotransferrin: GRRRSVQWCAVSQPEATKCFQWQRNMRKVRGPPVSCIKRDSPIQCIQAIAENRADAVTLDGGFIYEAGLAPYKLRPVAAEVYGTERQPRTHYYAVAVVKKGGSFQLNELQGLKSCHTGLRRTAGWNVPIGTLRPFLNWTGPPEPIEAAVARFFSASCVPGADKGQFPNLCRLCAGTGENKCAFSSQEPYFSYSGAFKCLRDGAGDVAFIRESTVFEDLSDEAERDEYELLCPDNTRKPVDKFKDCHLARVPSHAVVARSVNGKEDAIWNLLRQAQEKFGKDKSPKFQLFGSPSGQKDLLFKDSAIGFSRVPPRIDSGLYLGSGYFTAIQNLRKSEEEVAARRARVVWCAVGEQELRKCNQWSGLSEGSVTCSSASTTEDCIALVLKGEADAMSLDGGYVYTAGKCGLVPVLAENYKSQQSSDPDPNCVDRPVEGYLAVAVVRRSDTSLTWNSVKGKKSCHTAVDRTAGWNIPMGLLFNQTGSCKFDEYFSQSCAPGSDPRSNLCALCIGDEQGENKCVPNSNERYYGYTGAFRCLAENAGDVAFVKDVTVLQNTDGNNNEAWAKDLKLADFALLCLDGKRKPVTEARSCHLAMAPNHAVVSRMDKVERLKQVLLHQQAKFGRNGSDCPDKFCLFQSETKNLLFNDNTECLARLHGKTTYEKYLGPQYVAGITNLKKCSTSPLLEACEFLRK", "values": [{"measurement": "time for which growth of Pseudomonas aeruginosa is inhibited", "setting": "[1]", "result": "at least 45 hours"}, {"measurement": "time for which E. coli growth was inhibited", "setting": "[2]; 2% (w/v) LF in PBS, test sample pH below 2.5, 530 CFU's:1 mg LF, 37° C., FIG. 1A", "result": "at least 60 hours"}, {"measurement": "antimicrobial activity on E. coli O157:H7 as function of EDTA concentration", "setting": "[2]; 2% (w/v) LF in demi water, 0-1 mM EDTA, pH about 5 not adjusted, 270 CFU's:1 mg LF, FIG. 2", "result": "increases with increasing EDTA concentration"}]}]}
